Reference: patent US20170355775A1 (ELANCO TIERGESUNDHEIT, published 2017)
Positions count from the first letter of the chain named. Names may count otherwise. Blank lines part the entries; values can stand above or below the binder they belong to.

Legend:
[1] = target: T1, Hum-Can CD20 ECD2 V3 (mFc fusion) (human/canine hybrid); assay: ELISA, antigen coated at 200 ng/well, antibody 5 ug/ml
T1 construct: Described as a hybrid version of the original immunogen CD20 ECD2-mFc
T1 chain: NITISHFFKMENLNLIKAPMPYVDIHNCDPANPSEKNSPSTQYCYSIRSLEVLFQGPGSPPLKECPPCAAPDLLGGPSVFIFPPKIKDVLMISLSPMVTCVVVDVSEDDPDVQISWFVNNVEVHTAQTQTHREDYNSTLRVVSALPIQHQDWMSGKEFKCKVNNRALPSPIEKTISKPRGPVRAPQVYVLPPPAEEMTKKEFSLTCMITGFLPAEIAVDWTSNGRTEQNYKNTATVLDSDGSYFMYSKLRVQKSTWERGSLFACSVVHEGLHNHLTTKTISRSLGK
Procedure: (§1) This strategy- enabled identification of the specific sequences in canine CD20 that each mAb binds. Binding was tested using a standard ELISA protocol. Briefly, recombinant canine CD20 ECD2-mFc fusion protein and human/canine hybrid variants thereof were diluted in PBS and bound to a 96-well microtiter plate at 200 ng/well by overnight incubation at 4° C. The plate was rinsed three times with PBST buffer, blocked with a solution of 3% BSA in PBS for one hour at 37° C., then rinsed once with PBST. Mouse monoclonal antibodies 1E4, 1G1, and 1G10 were diluted to a concentration of 5 μg/ml in PBS and 50 μl of this dilution was applied to the plate for 1 hour at room temperature. The plate was then rinsed three times with PBST, and Jackson Immunoresearch goat anti-mouse-IgG light chain-specific HRP conjugate (#115-035-174) diluted to 1:5000 in PBS (50 μL) was added to each well, and the plate was incubated for 45 min at room temperature. The plate was washed three times with PBST, then 100 μl of SureBlueTMB substrate (KPL #52-00-03) was added to each well and the plate was incubated for about 10 min at room temperature. The plate was read at 650 nm in a spectrophotometer.

[2] = target: T2, Hum-Can CD20 ECD2 V4 (mFc fusion) (human/canine hybrid); assay: as above
T2 construct: Described as a hybrid version of the original immunogen CD20 ECD2-mFc
T2 chain: T1 chain with D24N, H26Y, D29E, P39L, T41I, Y45G
Procedure: as §1

[3] = target: T3, Hum-Can CD20 ECD2 V2 (mFc fusion) (human/canine hybrid); assay: as above
T3 construct: Described as a hybrid version of the original immunogen CD20 ECD2-mFc
T3 chain: T1 chain with D24N, H26Y, D29E
Procedure: as §1

[4] = target: T4, canine CD20 ECD2-mFc fusion protein (canine); assay: as above
T4 construct: also called cCD20 ECD2-mFc
T4 chain: T1 chain with P39L, T41I, Y45G
Procedure: as §1

[5] = target: T5, canine CD20 on canine B cells / B cell lymphoma cells (canine, UniProt Q3C2E2 1-297); assay: FACS on canine B cell lymphoma cells expressing canine CD20
T5 construct: whole, on cells; Endogenous CD20 on canine cells
T5 sequence (looked up): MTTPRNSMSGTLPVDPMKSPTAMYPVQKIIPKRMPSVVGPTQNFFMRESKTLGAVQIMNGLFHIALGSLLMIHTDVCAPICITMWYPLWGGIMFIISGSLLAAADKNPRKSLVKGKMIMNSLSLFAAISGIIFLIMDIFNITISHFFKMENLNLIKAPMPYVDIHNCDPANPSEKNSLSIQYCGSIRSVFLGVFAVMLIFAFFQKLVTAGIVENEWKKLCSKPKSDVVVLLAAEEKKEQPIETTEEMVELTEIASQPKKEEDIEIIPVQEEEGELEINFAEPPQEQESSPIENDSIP
Procedure: The relative affinities of the mouse monoclonal antibodies 1E4, 1G1, and 1G10 for binding to canine CD20 was determined by fluorescent activated cell sorting (FACS) using canine B cell lymphoma cells, which express canine CD20.

[6] = target: T6, canine CD20 ECD2 peptide (canine); assay: ELISA on canine CD20 ECD2 peptide (FIG. 5)
T6 peptide: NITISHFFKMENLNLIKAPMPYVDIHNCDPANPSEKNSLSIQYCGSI

B1: mouse monoclonal antibody 1G1 (antibody, V domains shown)
VH: EVQLQQSGAELVRPGASVKLSCTASGFNIKDDYMHWVKQRPEQGLEWIGWIDPENGHTKYASKFQGKATITADTSSNTAYLQLSSLTSEDTAVYYCTSLRHYYGSSYVSPHYYWGQGTTLTVSS
VL: DIVMTQSQKFMSRSVGDRVSVTCKASQNVGPNVAWYQQRPGQSPKPLIYSASYRYSGVPDRFTGSGSGTDFTLTISNVQSEDLAEYFCQQYNNYPYTFGGGTKLEIK
notes: Mouse monoclonal antibody from a hybridoma; also called hybridoma antibody 1G1
binding result [1]: binds | binding result [2]: binds | binding result [3]: binds | binding result [4]: binds | Kd [5]: 19800 pM

B2: mouse monoclonal antibody 1G10 (antibody, V domains shown)
VH: EVQLQQSGPELVKPGASVKISCKASGYTFTDYYMNWVKQSHGKSLEWIGDINPNNGDTSYNQKFKGKAPLTVDKSSSTAYMEVRSLTSEDSAVYFCARGGVLRYPYYYVMDYWGQGTSVTVSS
VL: DIVMTQAAPSVPVTPGESVSISCRSNKSLLHRNGNTYLYWFLQRPGQSPQLLIYRMSNLASGVPDRFSGSGSGTAFTLRISRVEAEDVGVYYCMQHLEFPFTFGGGTKLEIK
notes: Mouse monoclonal antibody from a hybridoma; also called hybridoma antibody 1G10
binding result [1]: binds | binding result [4]: binds | Kd [5]: 290 pM

B3: 1E4-cIgGB with G34 to A substitution in VL (antibody, V domains shown)
VH: EVQLVESGGGLVKPGGSLKLSCAASGFTFSDYGMLWVRQAPEKGLEWIAYISSGSSTIYYADRVKGRFTISRDNAKNTLFLQMTSLRSEDTAMYYCSTGTFAYWGQGTPVTVSS
VL: DVVMTQNPLSLPVSLGDQASISCRSSQSLIYNNANTYLHWYRQKPGQSPKLLIYKVSNRFSGVPDRFSGSGSGTDFTLKISRVEAEDLGVYFCSQSTHVPFTFGSGTKLEIKR
notes: also called G34A
binding result [6]: binds

B4: mouse monoclonal antibody 1E4 (antibody, V domains shown)
VH: B3 VH
VL: DVVMTQNPLSLPVSLGDQASISCRSSQSLIYNNGNTYLHWYRQKPGQSPKLLIYKVSNRFSGVPDRFSGSGSGTDFTLKISRVEAEDLGVYFCSQSTHVPFTFGSGTKLEIK
notes: Mouse monoclonal antibody from a hybridoma; also called 1E4-mAb; hybridoma antibody 1E4
binding result [1]: binds | binding result [4]: binds | Kd [5]: 970 pM

B5: 1E4-cIgGB with G34 to K substitution in VL (antibody, V domains shown)
VH: B3 VH
VL: B3 VL with A34K
notes: also called G34K
binding result [6]: binds

More lines, now with the values ahead:

binding result [6]: binds
B6: 1E4-cIgGB with G34 to Q substitution in VL (antibody, V domains shown)
VH: B3 VH
VL: B3 VL with A34Q
notes: also called G34Q

binding result [6]: binds
B7: 1E4-cIgGB with N33 to K substitution in VL (antibody, V domains shown)
VH: B3 VH
VL: B3 VL with N33K, A34G
notes: also called N33K
